# Measured values published in paper doi:10.1101/463968, “Structure of a bacterial ATP synthase” (bioRxiv, 2018).
# Tests used:
# Assay in all cases: cryo-EM structure; intact Bacillus PS3 ATP synthase in GDN, three rotational states at 2.9, 2.9 and 3.1 Å; focused refinement of the membrane-embedded region at 3.3 Å
# [1] = biological target: T1, Bacillus PS3 ATP synthase subunit α (Bacillus PS3, UniProt P09219 1-502); conditions: both partners purified
# T1 construct: ATP synthase subunit alpha, Bacillus PS3; three copies in the complex (α3β3γδε ab2c10); Part of the intact complex α3β3γδε ab2c10; also called αDP; source: E. coli strain DK8, plasmid pTR-ASDS; purified as part of the whole ATP synthase (GDN, HisTrap HP, Superose 6)
# T1 sequence (P09219 whole entry): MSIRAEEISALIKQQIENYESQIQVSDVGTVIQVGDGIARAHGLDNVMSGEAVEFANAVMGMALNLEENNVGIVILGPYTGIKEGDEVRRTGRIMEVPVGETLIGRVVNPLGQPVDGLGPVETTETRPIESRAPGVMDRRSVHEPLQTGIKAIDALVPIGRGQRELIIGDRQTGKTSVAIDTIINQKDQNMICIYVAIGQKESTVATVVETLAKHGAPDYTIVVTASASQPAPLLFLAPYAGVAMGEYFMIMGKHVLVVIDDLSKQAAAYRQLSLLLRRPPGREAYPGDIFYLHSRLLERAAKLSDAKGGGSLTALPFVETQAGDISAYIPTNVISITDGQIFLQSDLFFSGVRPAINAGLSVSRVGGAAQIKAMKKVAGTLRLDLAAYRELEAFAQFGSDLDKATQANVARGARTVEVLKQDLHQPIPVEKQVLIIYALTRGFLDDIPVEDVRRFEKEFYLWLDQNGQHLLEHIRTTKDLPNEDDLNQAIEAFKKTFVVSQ
# [2] = biological target: T2, Bacillus PS3 ATP synthase subunit γ (Bacillus PS3, UniProt P09222 5-286); conditions: both partners purified
# T2 construct: ATP synthase subunit gamma, Bacillus PS3; source: E. coli strain DK8, plasmid pTR-ASDS; purified as part of the whole ATP synthase (GDN, HisTrap HP, Superose 6)
# T2 sequence (P09222 5-286): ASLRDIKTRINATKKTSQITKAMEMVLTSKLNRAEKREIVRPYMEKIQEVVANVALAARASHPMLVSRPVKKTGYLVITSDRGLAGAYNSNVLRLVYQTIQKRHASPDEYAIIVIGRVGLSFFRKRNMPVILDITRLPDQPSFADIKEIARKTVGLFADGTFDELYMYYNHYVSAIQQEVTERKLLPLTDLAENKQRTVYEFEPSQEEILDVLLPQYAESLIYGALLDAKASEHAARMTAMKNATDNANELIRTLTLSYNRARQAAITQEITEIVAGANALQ
# [3] = biological target: the molecule itself
binding result [1],binding result [2],Binder,stoichiometry N [3]
binds,binds,"Bacillus PS3 ATP synthase subunit ε (natural protein, UniProt P07678 1-132, looked up, ATP synthase subunit epsilon, Bacillus PS3; source: E. coli strain DK8, plasmid pTR-ASDS; purified as part of the whole ATP synthase (GDN, HisTrap HP, Superose 6)) MKTIHVSVVTPDGPVYEDDVEMVSVKAKSGELGILPGHIPLVAPLEISAARLKKGGKTQYIAVSGGFLEVRPDNVTILAQAAERAEDIDVLRAKARKSGRTPLQSQQDDIDFKRAELALKRAMNRLSVAEMK",–
–,–,"Bacillus PS3 ATP synthase subunit c (natural protein, UniProt P00845 1-72, looked up, ATP synthase subunit c, Bacillus PS3; ring of ten copies; also called c-ring; c10; source: E. coli strain DK8, plasmid pTR-ASDS; purified as part of the whole ATP synthase (GDN, HisTrap HP, Superose 6); copies: 10) MSLGVLAAAIAVGLGALGAGIGNGLIVSRTIEGIARQPELRPVLQTTMFIGVALVEALPIIGVVFSFIYLGR",10
